T1: RRM1 subunit of ribonucleotide reductase (human (endogenous in RKO), UniProt P23921 1-792)
T1 sequence (looked up): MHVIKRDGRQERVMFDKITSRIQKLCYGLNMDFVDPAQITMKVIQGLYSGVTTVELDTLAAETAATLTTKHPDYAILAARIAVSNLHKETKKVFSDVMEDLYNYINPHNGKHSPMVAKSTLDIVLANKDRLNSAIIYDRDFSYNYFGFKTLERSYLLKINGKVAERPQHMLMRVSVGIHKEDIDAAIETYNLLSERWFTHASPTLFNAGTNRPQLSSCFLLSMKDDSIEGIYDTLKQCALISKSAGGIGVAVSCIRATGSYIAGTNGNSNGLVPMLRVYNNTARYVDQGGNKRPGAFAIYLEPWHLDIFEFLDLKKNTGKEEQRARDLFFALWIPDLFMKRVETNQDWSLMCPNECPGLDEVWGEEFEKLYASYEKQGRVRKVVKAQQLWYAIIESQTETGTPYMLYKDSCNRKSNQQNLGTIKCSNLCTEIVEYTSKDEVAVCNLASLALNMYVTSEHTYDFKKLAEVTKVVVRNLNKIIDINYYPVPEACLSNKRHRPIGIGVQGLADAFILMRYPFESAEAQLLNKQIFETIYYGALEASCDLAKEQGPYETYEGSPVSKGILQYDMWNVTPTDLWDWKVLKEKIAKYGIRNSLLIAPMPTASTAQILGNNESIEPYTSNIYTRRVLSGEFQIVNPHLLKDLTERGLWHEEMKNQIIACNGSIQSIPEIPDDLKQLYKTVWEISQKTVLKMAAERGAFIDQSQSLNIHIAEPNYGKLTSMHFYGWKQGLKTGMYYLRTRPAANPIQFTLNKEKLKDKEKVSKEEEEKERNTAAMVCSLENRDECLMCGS

B1: RRM2 subunit of ribonucleotide reductase (natural protein, human (endogenous in RKO), UniProt P31350 1-389, looked up)
chain: MLSLRVPLAPITDPQQLQLSPLKGLSLVDKENTPPALSGTRVLASKTARRIFQEPTEPKTKAAAPGVEDEPLLRENPRRFVIFPIEYHDIWQMYKKAEASFWTAEEVDLSKDIQHWESLKPEERYFISHVLAFFAASDGIVNENLVERFSQEVQITEARCFYGFQIAMENIHSEMYSLLIDTYIKDPKEREFLFNAIETMPCVKKKADWALRWIGDKEATYGERVVAFAAVEGIFFSGSFASIFWLKKRGLMPGLTFSNELISRDEGLHCDFACLMFKHLVHKPSEERVREIIINAVRIEQEFLTEALPVKLIGMNCTLMKQYIEFVADRLMLELGFSKVFRVENPFDFMENISLEGKTNFFEKRVGEYQRMGVMSSPTENSFTLDADF
B2: RRM2B subunit of ribonucleotide reductase (natural protein, human (endogenous in RKO), UniProt Q7LG56 1-351, looked up)
chain: MGDPERPEAAGLDQDERSSSDTNESEIKSNEEPLLRKSSRRFVIFPIQYPDIWKMYKQAQASFWTAEEVDLSKDLPHWNKLKADEKYFISHILAFFAASDGIVNENLVERFSQEVQVPEARCFYGFQILIENVHSEMYSLLIDTYIRDPKKREFLFNAIETMPYVKKKADWALRWIADRKSTFGERVVAFAAVEGVFFSGSFAAIFWLKKRGLMPGLTFSNELISRDEGLHCDFACLMFQYLVNKPSEERVREIIVDAVKIEQEFLTEALPVGLIGMNCILMKQYIEFVADRLLVELGFSKVFQAENPFDFMENISLEGKTNFFEKRVSEYQRFAVMAETTDNVFTLDADF

Target: T1, RRM1 subunit of ribonucleotide reductase
Test: co-IP

| Binder | fold decrease of RRM2 bound to RRM1 in <0.1% O2 against normoxia [fold] | fold increase of RRM2B bound to RRM1 in <0.1% O2 against normoxia [fold] |
| --- | --- | --- |
| B1 | 1.8 |  |
| B2 |  | 5.3 |

— publication PMC5405111 (Molecular Cell, 2017)
